These results are taken from patent US20250115663A1 (CELLDEX THERAPEUTICS, published 2025).

For experiment [1], the target named is T1, kappa-sCD40-Flag fusion protein, fragment amino acids 36-130 (human, UniProt P25942 56-150).
T1 construct: not shown: N-terminal human kappa light chain; C-terminal Flag tag
In words: ELISA, kappa-sCD40-Flag fragment captured on anti-Flag. How it is done: (§1) 1 μg/ml of purified kappa-sCD40-Flag fusion proteins or CHO cell supernatants containing the sCD40 fusion proteins were captured to microtiter plates that were pre-coated with 5 μg/ml mouse anti-Flag antibody (Sigma) in PBS and blocked with 5% bovine serum albumin in PBS. Following incubation with the CD40 antibody, the microplates were washed with PBS/Tween, and incubated with a goat anti-human IgG Fc polyclonal reagent conjugated to horseradish peroxidase. After washing, the plates were developed with HRP substrate, and analyzed at OD 450-650 using a microtiter plate reader. An ELISA with a goat anti-human IgG Fab2-HRP to measure kappa chain binding was carried out in parallel to validate the sCD40 fusion protein expression from different transfections.

The target of experiment [2] is T2, kappa-sCD40-Flag fusion protein, fragment amino acids 84-173 (human, UniProt P25942 104-193).
T2 construct: not shown: N-terminal human kappa light chain; C-terminal Flag tag
Described as above. How it is done:
as §1

The target in experiment [3] is T3, kappa-sCD40-Flag fusion protein, full length ECD amino acid residues 1-173 (human, UniProt P25942 21-193).
T3 construct: also called full length sCD40; not shown: N-terminal human kappa light chain; C-terminal Flag tag
In words: ELISA, kappa-sCD40-Flag fusion (~1 ug/ml) captured on anti-Flag, anti-human IgG Fc-HRP. How it is done: as §1

Experiment [4] concerns the target T1, kappa-sCD40-Flag fusion protein, …. The description is as above. How it is done: as §1
Experiment [5] addresses T4, kappa-sCD40-Flag fusion protein, fragment amino acids 1-94 (human, UniProt P25942 21-114).
T4 construct: also called sCD40aa 1-94; not shown: N-terminal human kappa light chain; C-terminal Flag tag
In words: ELISA, kappa-sCD40-Flag fusion (~2 ug/ml) captured on anti-Flag, anti-human IgG Fc-HRP. As for the experimental part: as §1, with “containing” for “1 μg/ml of purified kappa-sCD40-Flag fusion proteins or CHO cell supernatants containing”

Experiment [6] addresses T5, kappa-sCD40(1-94)-Flag mutant fragment A (multiple mutations of residues 1-5) (human, UniProt P25942 26-114).
T5 construct: The text says only multiple mutations of residues 1-5 (human to mouse differences); that mutant A carries exactly these is inferred; also called A (1-5); not shown: N-terminal human kappa light chain; C-terminal Flag tag
The experiment is described as above. How it is done: as §1, with “containing” for “1 μg/ml of purified kappa-sCD40-Flag fusion proteins or CHO cell supernatants containing”

For experiment [7], the target named is T6, kappa-sCD40(1-94)-Flag point mutant E1G (human, UniProt P25942 22-114).
T6 construct: not shown: N-terminal human kappa light chain; C-terminal Flag tag
The experiment is described as above. How it is done: as §1, with “containing” for “1 μg/ml of purified kappa-sCD40-Flag fusion proteins or CHO cell supernatants containing”

For experiment [8], the target named is T7, kappa-sCD40(1-94)-Flag point mutant P2Q (human, UniProt P25942 21-114).
T7 construct: not shown: N-terminal human kappa light chain; C-terminal Flag tag
T7 chain: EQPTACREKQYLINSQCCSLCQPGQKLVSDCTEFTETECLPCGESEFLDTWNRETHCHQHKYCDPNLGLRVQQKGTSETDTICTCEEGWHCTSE
The description is as above. As for the experimental part: as §1, with “containing” for “1 μg/ml of purified kappa-sCD40-Flag fusion proteins or CHO cell supernatants containing”

Experiment [9] deals with T8, kappa-sCD40(1-94)-Flag point mutant P3S (human, UniProt P25942 21-114).
T8 construct: not shown: N-terminal human kappa light chain; C-terminal Flag tag
T8 chain: T7 chain with Q2P, P3S
The description is as above. As for the experimental part: as §1, with “containing” for “1 μg/ml of purified kappa-sCD40-Flag fusion proteins or CHO cell supernatants containing”

The target of experiment [10] is T9, kappa-sCD40(1-94)-Flag point mutant T4V (human, UniProt P25942 21-114).
T9 construct: not shown: N-terminal human kappa light chain; C-terminal Flag tag
T9 chain: T7 chain with Q2P, T4V
Described as above. As for the experimental part:
as §1, with “containing” for “1 μg/ml of purified kappa-sCD40-Flag fusion proteins or CHO cell supernatants containing”

Experiment [11] addresses T10, kappa-sCD40(1-94)-Flag point mutant E33A (human, UniProt P25942 21-114).
T10 construct: not shown: N-terminal human kappa light chain; C-terminal Flag tag
T10 chain: T7 chain with Q2P, E33A
The description is as above. As for the experimental part: as §1, with “containing” for “1 μg/ml of purified kappa-sCD40-Flag fusion proteins or CHO cell supernatants containing”

Experiment [12] concerns the target T11, kappa-sCD40(1-94)-Flag point mutant F34L (human, UniProt P25942 21-114).
T11 construct: not shown: N-terminal human kappa light chain; C-terminal Flag tag
T11 chain: T7 chain with Q2P, F34L
The experiment is described as above. How it is done: as §1, with “containing” for “1 μg/ml of purified kappa-sCD40-Flag fusion proteins or CHO cell supernatants containing”

Experiment [13] deals with T12, kappa-sCD40(1-94)-Flag point mutant T35E (human, UniProt P25942 21-114).
T12 construct: not shown: N-terminal human kappa light chain; C-terminal Flag tag
T12 chain: T7 chain with Q2P, T35E
The description is as above. How it is done: as §1, with “containing” for “1 μg/ml of purified kappa-sCD40-Flag fusion proteins or CHO cell supernatants containing”

In experiment [14] the target is T4, kappa-sCD40-Flag fusion protein, …. The experiment can be described thus: ELISA, kappa-sCD40(1-94)-Flag captured on anti-Flag antibody, detection anti-human IgG Fc-HRP; the concentration axis is taken as that of 3C3 (not said on the sheet). How it is done:
as §1
In general terms: ELISA stands for enzyme-linked immunosorbent assay.

Changes are numbered by the printed parent chain.

T1 sequence (P25942 56-150): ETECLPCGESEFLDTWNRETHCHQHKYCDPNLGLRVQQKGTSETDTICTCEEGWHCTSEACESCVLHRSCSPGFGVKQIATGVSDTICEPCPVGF
T3 sequence (P25942 21-193): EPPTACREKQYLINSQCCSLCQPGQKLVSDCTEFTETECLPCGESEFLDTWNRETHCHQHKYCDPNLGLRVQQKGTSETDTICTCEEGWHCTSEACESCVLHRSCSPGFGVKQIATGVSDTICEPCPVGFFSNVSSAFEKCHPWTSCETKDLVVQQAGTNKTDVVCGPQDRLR
T2 sequence (P25942 104-193): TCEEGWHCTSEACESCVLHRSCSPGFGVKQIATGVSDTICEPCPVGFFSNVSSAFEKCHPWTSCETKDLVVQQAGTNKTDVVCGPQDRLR

B1: anti-CD40 human monoclonal antibody 3C3 (antibody, human IgG2, kappa, V domains shown)
VH: QVQLVESGGGVVQPGRSLRLSCAGSGFIFSRYGMYWVRQAPGKGLEWVAVIWYDGSYKYYADSVKGRFTISRDNSKNTLYLQMNSLRAEDTAVYYCARESPWYYFDYWGQGTLVTVSS
VL: DIQMTQSPSSLSASVGDRVTITCRASQGISNYLAWYQQKPGKVPKLLIYAASTLQSGVPSRFSGSGSGTDFTLTISSLQPEDVATYYCQKYKSAPFTFGPGTKVDIKR
notes: Human IgG2, C-terminal lysine removed; also called anti-CD40 mAb 3C3; CD40 antibody 3C3
Broadly, the EC50 (read off the curve) is the concentration needed to bring the measured effect to its halfway point. In the case of B1, the binding result in [1] and in experiment [2] was “no binding (tested: ~1 ug/ml fragment)” each time. Besides, the “Average OD” value in experiment [3] came to 1.26 OD 450-650; in [4], 0.024 OD 450-650; in experiment [5], 2.16 OD 450-650; in experiment [6], 0.167 OD 450-650; in [7] it was 1.97 OD 450-650; in [8] it was 2.08 OD 450-650. Further, the “Average OD” value in experiment [9] is 2.01 OD 450-650; in [10], 2.15 OD 450-650; in experiment [11], 1.62 OD 450-650; in [12], 1.88 OD 450-650; in experiment [13] it was 2.07 OD 450-650. In [14], the “EC50 (read off the curve)” value is about 0.02 µg/mL.
